Source: article PMC5992326, “Structural Basis for the Initiation of Glycosaminoglycan Biosynthesis by Human Xylosyltransferase 1” (Structure(London, England:1993), 2018)

B1: Peptide 8 (syndecan 1-derived acceptor peptide) (peptide)
peptide: PAAEGSGEQDFT
notes: syndecan 1 around the acceptor serine S206; position 0 is the acceptor serine; source: synthetic peptide (Genscript)
B2: Peptide 1 (bikunin-derived acceptor peptide, wild-type sequence) (peptide)
peptide: QEEEGSGGGQGG
notes: bikunin (part of the AMBP precursor) around the acceptor serine S215; position 0 is the acceptor serine; also called active peptide 1; bikunin-derived peptide 1; source: synthetic peptide (Genscript)
B3: Peptide 2 (inactive bikunin-derived peptide, acceptor serine replaced by alanine) (peptide)
peptide: QEEEGAGGGQGG
notes: bikunin (part of the AMBP precursor) around the acceptor site S215, with the acceptor serine changed to alanine; source: synthetic peptide (Genscript)

Target: T1, human xylosyltransferase 1 (XT1), residues 232-959 (human, UniProt Q86Y38 232-959, N-linked glycosylation at N777)
T1 construct: human xylosyltransferase 1 (XT1), residues 232-959, amplified from a Dharmacon cDNA clone; The vector is a modified pCEP-Pu (pCEP-Pu-N-His-TEV, Pulido et al., 2017); also called peptide O-xylosyltransferase; XYLT1; source: FreeStyle 293-F (HEK293-F) cells, transfected, secreted; purified (HisTrap Excel, HiTrap Heparin, Superdex 200); not shown: His-tag (TEV protease-cleavable), N-terminal, kept
T1 sequence (looked up): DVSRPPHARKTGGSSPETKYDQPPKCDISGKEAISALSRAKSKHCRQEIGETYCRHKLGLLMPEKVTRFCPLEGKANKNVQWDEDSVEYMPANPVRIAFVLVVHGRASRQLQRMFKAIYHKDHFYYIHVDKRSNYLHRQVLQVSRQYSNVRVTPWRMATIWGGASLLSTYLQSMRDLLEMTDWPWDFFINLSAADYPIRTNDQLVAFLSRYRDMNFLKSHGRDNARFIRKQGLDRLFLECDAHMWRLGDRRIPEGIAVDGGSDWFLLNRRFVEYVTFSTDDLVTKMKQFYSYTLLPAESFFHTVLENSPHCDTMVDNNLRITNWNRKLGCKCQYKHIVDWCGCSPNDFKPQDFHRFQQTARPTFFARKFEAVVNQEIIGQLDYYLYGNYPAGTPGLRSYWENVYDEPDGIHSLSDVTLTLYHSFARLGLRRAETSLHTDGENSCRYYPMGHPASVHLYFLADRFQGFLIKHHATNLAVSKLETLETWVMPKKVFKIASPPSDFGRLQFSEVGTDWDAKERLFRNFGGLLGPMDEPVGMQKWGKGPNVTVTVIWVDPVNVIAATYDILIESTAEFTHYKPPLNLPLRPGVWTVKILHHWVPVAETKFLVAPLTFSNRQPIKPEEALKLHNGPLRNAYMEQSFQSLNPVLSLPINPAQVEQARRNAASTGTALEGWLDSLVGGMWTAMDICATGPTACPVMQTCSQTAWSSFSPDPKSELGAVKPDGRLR
Assay: crystal structure; XT1 crystals (hanging drop, Morpheus condition, pH 7.5) soaked with peptide (0.5 or 0.7 mM); for peptide 2 together with UDP-xylose (3.5 mM), giving a ternary complex
Conditions: both partners purified

Row | Binder | binding result
1 | B1 | binds
2 | B2 | binds
3 | B3 | binds
